Measured values as given in PMC3685266.

What was measured:
[1] = biological target: SecY_(268Fl)EG (E. coli) (UniProt P0AGA2); assay: other fluorescence titration; fluorescence quench of 5 nM SecY_(268Fl)EG, 1 mM p[NH]ppA, 20 mM Tris/HCl pH 8, 130 mM NaCl, 10% glycerol, 2 mM MgCl2, 0.03% C12E9; SecA titrated 0-1 μM; with 10 mM DTT; one-site fit with linear phase
[2] = biological target: SecA_(D337C/K482C), uncross-linked, clamp released from the closed state with 10 mM DTT (E. coli) (UniProt P10408); assay: SEC; Superose 6 10/300 GL, 20 mM Tris/HCl pH 7.5, 100 mM KCl, with or without 10 mM DTT; column calibrated with gel-filtration standards
[3] = biological target: SecY_(268Fl)EG (E. coli) (UniProt P0AGA2); assay: other fluorescence titration; fluorescence quench of 5 nM SecY_(268Fl)EG, 1 mM p[NH]ppA, 20 mM Tris/HCl pH 8, 130 mM NaCl, 10% glycerol, 2 mM MgCl2, 0.03% C12E9; SecA titrated 0-1 μM; no DTT; one-site fit with linear phase
[4] = biological target: SecA_(Δcys), SecA without cysteine residues (E. coli) (UniProt P10408); assay: SEC; Superose 6 10/300 GL, 20 mM Tris/HCl pH 7.5, 100 mM KCl, with or without 10 mM DTT; column calibrated with gel-filtration standards
[5] = biological target: preformed SecA_(D337C/K482C) (released with DTT)–SecYEG membrane-bound complex (E. coli) (UniProt P10408); assay: steady-state ATPase activity titration; 80 nM SecA with 1.08 μM SecYEG reconstituted into E. coli polar lipids in TKM buffer, 1 mM ATP, increasing purified proOmpA_(Δcys); with 10 mM DTT; Kd from a ligand-binding fit
[6] = biological target: preformed SecA_(Δcys)–SecYEG membrane-bound complex (E. coli) (UniProt P10408); assay: as above
[7] = biological target: preformed SecA_(D337C/E806C) (released with DTT)–SecYEG membrane-bound complex (E. coli) (UniProt P10408); assay: as above
[8] = biological target: preformed SecA_(Δcys)–SecYEG membrane-bound complex (E. coli) (UniProt P10408); assay: steady-state ATPase activity titration; 80 nM SecA with 1.08 μM SecYEG reconstituted into E. coli polar lipids in TKM buffer, 1 mM ATP, increasing purified proOmpA_(Δcys); no DTT; Kd from a ligand-binding fit
[9] = biological target: SecA_(D337C/E806C), released with 10 mM DTT (E. coli) (UniProt P10408); assay: steady-state ATPase activity titration; 80 nM SecA in TKM buffer, 1 mM ATP, increasing vesicles reconstituted with purified SecYEG; without proOmpA; with 10 mM DTT; Kd from a ligand-binding fit
[10] = biological target: SecA_(Δcys) (E. coli) (UniProt P10408); assay: as above
[11] = biological target: SecA_(D337C/K482C), released with 10 mM DTT (E. coli) (UniProt P10408); assay: as above
[12] = biological target: SecA_(D337C/E806C), released with 10 mM DTT (E. coli) (UniProt P10408); assay: steady-state ATPase activity titration; 80 nM SecA in TKM buffer, 1 mM ATP, increasing vesicles reconstituted with purified SecYEG; in the presence of 0.6 μM proOmpA_(Δcys); with 10 mM DTT; Kd from a ligand-binding fit
[13] = biological target: SecA_(Δcys) (E. coli) (UniProt P10408); assay: as above
[14] = biological target: SecA_(D337C/K482C), released with 10 mM DTT (E. coli) (UniProt P10408); assay: as above
[15] = biological target: SecA_(D337C/E806C), released with 10 mM DTT (E. coli) (UniProt P10408); assay: steady-state ATPase activity titration; 0.15 μM SecA in TKM buffer (pH 7.5), 1 mM ATP, 0.03% C12E9, 25°C, increasing detergent-solubilised SecYEG; with 10 mM DTT; apparent Kd from a ligand-binding fit
[16] = biological target: SecA_(Δcys) (E. coli) (UniProt P10408); assay: as above
[17] = biological target: SecA_(D337C/K482C), released with 10 mM DTT (E. coli) (UniProt P10408); assay: as above
[18] = biological target: SecA_(Δcys) (E. coli) (UniProt P10408); assay: steady-state ATPase activity titration; 80 nM SecA in TKM buffer, 1 mM ATP, increasing vesicles reconstituted with purified SecYEG; without proOmpA; no DTT; Kd from a ligand-binding fit
[19] = biological target: SecA_(D337C/E806C), cross-linked (clamp open) (E. coli) (UniProt P10408); assay: as above
[20] = biological target: SecA_(D337C/K482C), cross-linked (clamp closed) (E. coli) (UniProt P10408); assay: as above
[21] = biological target: SecA_(Δcys) (E. coli) (UniProt P10408); assay: steady-state ATPase activity titration; 0.15 μM SecA in TKM buffer (pH 7.5), 1 mM ATP, 0.03% C12E9, 25°C, increasing detergent-solubilised SecYEG; no DTT; apparent Kd from a ligand-binding fit
[22] = biological target: SecA_(D337C/E806C), cross-linked (clamp open) (E. coli) (UniProt P10408); assay: as above
[23] = biological target: SecA_(D337C/K482C), cross-linked (clamp closed) (E. coli) (UniProt P10408); assay: as above
[24] = biological target: SecA_(D337C/E806C), released with 10 mM DTT (E. coli) (UniProt P10408); assay: steady-state ATPase activity titration; 0.15 μM SecA in TKM buffer, 1 mM ATP, increasing detergent-solubilised SecYEG, in the presence of 40 μM cardiolipin (CL); with 10 mM DTT; apparent Kd from a ligand-binding fit
[25] = biological target: SecA_(Δcys) (E. coli) (UniProt P10408); assay: as above
[26] = biological target: SecA_(D337C/K482C), released with 10 mM DTT (E. coli) (UniProt P10408); assay: as above
[27] = biological target: SecA_(Δcys) (E. coli) (UniProt P10408); assay: steady-state ATPase activity titration; 0.15 μM SecA in TKM buffer, 1 mM ATP, increasing detergent-solubilised SecYEG, in the presence of 40 μM cardiolipin (CL); no DTT; apparent Kd from a ligand-binding fit
[28] = biological target: SecA_(Δcys) (E. coli) (UniProt P10408); assay: steady-state ATPase activity titration; 80 nM SecA in TKM buffer, 1 mM ATP, increasing vesicles reconstituted with purified SecYEG; in the presence of 0.6 μM proOmpA_(Δcys); no DTT; Kd from a ligand-binding fit
[29] = biological target: SecA_(D337C/E806C), cross-linked (clamp open) (E. coli) (UniProt P10408); assay: as above
[30] = biological target: SecA_(D337C/K482C), cross-linked (clamp closed) (E. coli) (UniProt P10408); assay: as above
[31] = biological target: SecA_(D337C/E806C), uncross-linked, clamp released from the open state with 10 mM DTT (E. coli) (UniProt P10408); assay: SEC; Superose 6 10/300 GL, 20 mM Tris/HCl pH 7.5, 100 mM KCl, with or without 10 mM DTT; column calibrated with gel-filtration standards

Substance “SecA_(D337C/E806C), released with 10 mM DTT (from UniProt P10408 1-901) (enzyme)” has a Kd [1] of 59.5 nM.

“SecA_(D337C/K482C), uncross-linked, clamp released from the closed state with 10 mM DTT (from UniProt P10408 1-901) (enzyme)” was tested, and the stoichiometry N [2] was 2.

“SecA_(D337C/K482C), released with 10 mM DTT (from UniProt P10408 1-901) (enzyme)” showed a Kd [1] of 118 nM.

With “SecA_(D337C/E806C), cross-linked (clamp open) (from UniProt P10408 1-901) (enzyme)” the Kd [3] was 60.9 nM.

“SecA_(Δcys), SecA without cysteine residues (from UniProt P10408 1-901) (enzyme)” showed a stoichiometry N [4] of 2.

For “proOmpA_(Δcys) (from UniProt P0A910 22-346) (natural protein)”, the Kd [5] was 240 nM, the Kd [6] was 780 nM and the Kd [7] was 350 nM. It also gave a Kd [8] of 500 nM.

“SecYEG (from UniProt P0AGA2 1-443; P0AG96 1-127; P0AG99 1-110) (complex)” showed a Kd [9] of 650 nM, a Kd [10] of 1110 nM and a Kd [11] of 340 nM. For the same substance, the Kd [12] was 130 nM, the Kd [13] was 190 nM and the Kd [14] was 130 nM. The Kd [15] was 6000 nM, the Kd [16] was 7800 nM and the Kd [17] was 6300 nM. It also gave a Kd [18] of 1130 nM, a Kd [19] of 650 nM and a Kd [20] of 29 nM. It also gave a Kd [21] of 7600 nM, a Kd [22] of 5900 nM and a Kd [23] of 15 nM. It also gave a Kd [24] of 6.5 nM, a Kd [25] of 5.6 nM and a Kd [26] of 8.8 nM. For the same substance, the Kd [27] was 3.7 nM, the Kd [28] was 260 nM and the Kd [29] was 170 nM. It also gave a Kd [30] of 25 nM.

In the case of “SecA_(Δcys) (from UniProt P10408 1-901) (enzyme)”, the Kd [3] is reported as 18.4 nM and the Kd [1] is reported as 20.6 nM.

With “SecA_(D337C/K482C), cross-linked (clamp closed) (from UniProt P10408 1-901) (enzyme)” the Kd [3] was 28.6 nM.

Substance “SecA_(D337C/E806C), uncross-linked, clamp released from the open state with 10 mM DTT (from UniProt P10408 1-901) (enzyme)” has a stoichiometry N [31] of 2.
